Publication PMC3876986, “The Velvet Family of Fungal Regulators Contains a DNA-Binding Domain Structurally Similar to NF-κB”

Legend:
[1] = molecular target: VosA_(1–190) dead, quadruple mutant of VosA with the mutations K37A, K39A, R41A, and K42A (A. nidulans); assay: SEC-MALS; size exclusion chromatography and subsequent mass determination using MALS
[2] = molecular target: VosA_(1–190), minimal velvet domain of VosA encompassing residues 1–190 (A. nidulans); assay: SEC; Superdex 200 (16/60) gel filtration column; elution volumes compared
[3] = molecular target: VosA_(1–190), minimal velvet domain of VosA encompassing residues 1–190 (A. nidulans); assay: SEC-MALS; size exclusion chromatography and subsequent mass determination using MALS
[4] = molecular target: T1, VosA full-length (Aspergillus nidulans, UniProt Q5BBX1 1-430); assay: EMSA; EMSA: 10 mM HEPES/NaOH pH 7.4, 150 mM NaCl, ~53 pmol DNA in 10 ul, RT 15 min; DNA:protein molar ratios 1:0.3 to 1:9; 6% PAGE, 0.5% TBE, ethidium bromide; conditions: protein: recombinant; tags: GST (N-terminal, pGEX-5X-1); chain copies: 2; blunt
T1 sequence: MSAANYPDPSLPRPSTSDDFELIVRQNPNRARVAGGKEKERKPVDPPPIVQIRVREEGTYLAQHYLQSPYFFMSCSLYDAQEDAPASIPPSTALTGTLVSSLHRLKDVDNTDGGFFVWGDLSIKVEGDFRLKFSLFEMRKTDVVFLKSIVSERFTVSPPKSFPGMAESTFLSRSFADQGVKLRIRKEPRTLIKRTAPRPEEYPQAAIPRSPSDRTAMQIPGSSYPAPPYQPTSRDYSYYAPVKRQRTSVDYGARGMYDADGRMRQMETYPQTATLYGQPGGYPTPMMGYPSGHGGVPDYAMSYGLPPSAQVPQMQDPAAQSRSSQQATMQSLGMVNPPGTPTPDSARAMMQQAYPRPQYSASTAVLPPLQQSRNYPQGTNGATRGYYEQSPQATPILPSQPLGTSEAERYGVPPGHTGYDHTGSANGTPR

[5] = molecular target: T2, VosA_N (Aspergillus nidulans, UniProt Q5BBX1 1-216); assay: as above; conditions: protein: recombinant; tags: GST (N-terminal, pGEX-4T-3); chain copies: 2; blunt
T2 sequence: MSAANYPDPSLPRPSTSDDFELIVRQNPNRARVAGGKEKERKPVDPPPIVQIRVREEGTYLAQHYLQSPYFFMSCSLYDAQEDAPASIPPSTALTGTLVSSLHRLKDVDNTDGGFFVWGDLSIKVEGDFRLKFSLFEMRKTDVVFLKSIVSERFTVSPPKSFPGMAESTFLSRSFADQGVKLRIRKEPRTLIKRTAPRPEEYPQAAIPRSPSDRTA

[6] = molecular target: VelB (Aspergillus nidulans, UniProt C8VTS4 1-369); assay: as above; conditions: protein: recombinant; tags: His6 (C-terminal); blunt
Sequence of VelB (C8VTS4 whole entry): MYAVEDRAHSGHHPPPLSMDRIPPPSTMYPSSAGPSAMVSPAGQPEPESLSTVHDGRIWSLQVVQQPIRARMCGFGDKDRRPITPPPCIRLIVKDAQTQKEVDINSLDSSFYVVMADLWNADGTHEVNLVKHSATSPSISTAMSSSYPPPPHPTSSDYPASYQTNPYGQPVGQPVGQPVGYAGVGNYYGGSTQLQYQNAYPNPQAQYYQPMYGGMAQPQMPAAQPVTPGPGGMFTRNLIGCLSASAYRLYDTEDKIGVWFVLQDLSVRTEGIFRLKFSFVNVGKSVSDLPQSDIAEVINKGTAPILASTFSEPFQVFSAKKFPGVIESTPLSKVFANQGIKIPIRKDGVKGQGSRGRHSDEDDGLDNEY

[7] = molecular target: T3, VosA1-190 (VosA_cryst) (Aspergillus nidulans, UniProt Q5BBX1 1-190); assay: EMSA; weaker than VosA_N; EMSA: 10 mM HEPES/NaOH pH 7.4, 150 mM NaCl, ~53 pmol DNA in 10 ul, RT 15 min; DNA:protein molar ratios 1:0.3 to 1:9; 6% PAGE, 0.5% TBE, ethidium bromide; conditions: protein: recombinant; tags: Strep-tag (C-terminal); chain copies: 2; blunt
T3 sequence: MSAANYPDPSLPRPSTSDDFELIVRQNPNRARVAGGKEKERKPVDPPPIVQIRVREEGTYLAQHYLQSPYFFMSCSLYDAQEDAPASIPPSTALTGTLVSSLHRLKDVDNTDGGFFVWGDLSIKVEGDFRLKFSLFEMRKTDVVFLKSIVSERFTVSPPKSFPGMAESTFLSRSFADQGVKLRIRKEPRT

[8] = molecular target: T4, VeA1-224 (Aspergillus nidulans, UniProt C8VTV4 1-224); assay: EMSA; binds as well as VosA1-190; EMSA: 10 mM HEPES/NaOH pH 7.4, 150 mM NaCl, ~53 pmol DNA in 10 ul, RT 15 min; DNA:protein molar ratios 1:0.3 to 1:9; 6% PAGE, 0.5% TBE, ethidium bromide; conditions: protein: recombinant; tags: Strep-tag (C-terminal); blunt
T4 sequence: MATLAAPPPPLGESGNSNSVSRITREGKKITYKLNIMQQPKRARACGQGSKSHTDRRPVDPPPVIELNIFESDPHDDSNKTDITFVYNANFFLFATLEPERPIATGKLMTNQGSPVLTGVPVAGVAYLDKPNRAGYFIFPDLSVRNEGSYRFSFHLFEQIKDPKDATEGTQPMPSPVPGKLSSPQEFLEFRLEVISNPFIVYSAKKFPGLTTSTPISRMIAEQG

## VosA_(1–190) dead, quadruple mutant of VosA with the mutations K37A, K39A, R41A, and K42A (domain or fragment)
[1]
  stoichiometry N: 2

## VosA_(1–190), minimal velvet domain of VosA encompassing residues 1–190 (domain or fragment)
[2]
  stoichiometry N: 2
[3]
  stoichiometry N: 2

B1: brlA 35 bp probe (OHS301/302) (dsDNA)
DNA 1: ATTCGGCGACTAGGATCTTACTGGCCGCGGCCGAG
DNA 2: CTCGGCCGCGGCCAGTAAGATCCTAGTCGCCGAAT
[4]
  binding result: binds
[5]
  binding result: binds
[6]
  binding result: no binding
[7]
  binding result: binds
[8]
  binding result: binds
